Reference: patent US20120207760A1

B1: TCN-504 (3251_K17) (antibody, V domains shown)
VH: QVQLQESGPGLVKPSETLSLTCAVSGVSISNIDFYWGWIRQPPGKGLEWIGNIYYTGITFYNPSLSSRVAISIDTSKNQFSLTLTSVTAADTAMYYCARHYGDSEAINDAFDIWGQGTMLTVSS
VL: EIVMTQSPATLSVSPGERATLSCRASQSVGNSLAWYQQRPGQAPRLLIYGASTRATGIPPRFSGSGSGTEFTLTISSLQTEDFAVYYCQQYINWRPLSFGGGTKVEIK
B2: TCN-523 (5248_A17) (antibody, V domains shown)
VH: QVQLVQSGAEVKKPGSSVKVSCKASGGSFSNYAFSWVRQAPGQGLEWMGGTIPLLGTTNYAQKFQGRVTISADQFTSTAYMELGSLRSEDTAVYYCTRRKMTTAFDSWGQGTLVTVSS
VL: QPVLTQPPSASASLGASVTLTCTLSSAYSNYKVDWYQQRPGKGPRFVMRVGTGGIVGSKGDGIPDRFSVLGSGLNRYLTIKNIQEEDESDYHCGADHGSGSNFVSPYVFGGGTKLTVL

Legend:
Conditions in all cases: remark: other sources report otherwise
[1] = biological target: T1, recombinant homotrimeric HA, A/Anhui/1/05 H5N1 (Influenza A virus A/Anhui/1/05 (H5N1)); assay: trimeric HA microarray, transfection set 2
[2] = biological target: T2, recombinant homotrimeric HA, A/Wisconsin/67/05 H3N2 (Influenza A virus A/Wisconsin/67/05 (H3N2)); assay: trimeric HA microarray, transfection set 2
[3] = biological target: T3, recombinant homotrimeric HA, A/duck/Yangzhou/02/05 H8N4 (Influenza A virus A/duck/Yangzhou/02/2005 (H8N4)); assay: trimeric HA microarray, transfection set 2
[4] = biological target: T4, recombinant homotrimeric HA, A/Netherlands/219/03 H7N7 (Influenza A virus A/Netherlands/219/03 (H7N7)); assay: trimeric HA microarray, transfection set 2
[5] = biological target: T1, recombinant homotrimeric HA, …; assay: trimeric HA microarray, transfection set 1
[6] = biological target: T2, recombinant homotrimeric HA, …; assay: trimeric HA microarray, transfection set 1
[7] = biological target: T3, recombinant homotrimeric HA, …; assay: trimeric HA microarray, transfection set 1
[8] = biological target: T4, recombinant homotrimeric HA, …; assay: trimeric HA microarray, transfection set 1
[9] = biological target: T5, recombinant homotrimeric HA, A/Hong Kong/1073/99 H9N2 (Influenza A virus A/Hong Kong/1073/99 (H9N2)); assay: trimeric HA microarray, transfection set 2
[10] = biological target: T6, recombinant homotrimeric HA, A/northern shoveler/California/HKWF115/07 (Influenza A virus A/northern shoveler/California/HKWF115/2007 (H6N1)); assay: trimeric HA microarray, transfection set 2
[11] = biological target: T5, recombinant homotrimeric HA, A/Hong …; assay: trimeric HA microarray, transfection set 1
[12] = biological target: T6, recombinant homotrimeric HA, A/northern …; assay: trimeric HA microarray, transfection set 1

Binder	Trimeric HA Binding RLU [1] [RLU]	Trimeric HA Binding RLU [2] [RLU]	Trimeric HA Binding RLU [3] [RLU]	Trimeric HA Binding RLU [4] [RLU]	Trimeric HA Binding RLU [5] [RLU]	Trimeric HA Binding RLU [6] [RLU]	Trimeric HA Binding RLU [7] [RLU]	Trimeric HA Binding RLU [8] [RLU]	Trimeric HA Binding RLU [9] [RLU]	Trimeric HA Binding RLU [10] [RLU]	Trimeric HA Binding RLU [11] [RLU]	Trimeric HA Binding RLU [12] [RLU]
B1	31000	21600	17800	19300	29000	14300	28900	23800				
B2									31300	21200	21700	9050
